# B1: α-SNAP-25 monoclonal antibody 3C1A5 (antibody, V domains shown)
# VH: VKLQESGAELVKPGASVKISCKASGYTFTDHSIHWVKQKPGQGLEWIGYLFPGNGNFEYNEKFKGKATLTADKSSSTVYMYLNSLTSEDSAVYFCKRMGYWGQGTTVTVSS
# VL: DIKMTQSPSSMYASLGERVTITCKASQDIKSYLSWYQQKPWKSPKTLIYYATSLADGVPSRFSGSGSGQDYSLTISSLESDDTATYYCLQHGESPFTFGSGTKLEIKR
# Biological target: T1, SNAP-25206 uncleaved substrate in PC12 cells (rat (PC12 cell line), UniProt P60881 1-206, limits assumed)
# T1 construct: also called uncleaved SNAP-25206 substrate; uncleaved SNAP-25
# T1 sequence (P60881 whole entry): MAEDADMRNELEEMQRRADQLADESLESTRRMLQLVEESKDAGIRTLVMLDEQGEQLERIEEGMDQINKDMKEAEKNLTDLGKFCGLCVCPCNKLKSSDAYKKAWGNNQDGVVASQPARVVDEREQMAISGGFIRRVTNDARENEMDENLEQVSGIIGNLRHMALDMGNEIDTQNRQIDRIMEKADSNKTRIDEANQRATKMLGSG
# Test: immunocytochemistry of PC12 cells +/- GFP-BoNT/A-LC, ascites 1:10
binder,measurement,value
B1,binding result,no binding

# — patent US20120122128A1 (ALLERGAN, published 2012)
